± gives the uncertainty stated by the source.
B1: Zinc finger protein ZIC 2, residues 250 to 295; numbered along this chain, O95409 (parent)
chain: QCIKQELICKWIDPEQLSNPKKSCNKTFSTMHELVTHVSVEHVGGP

Variants of: B1
Test: abundance fitness (aPCA) (normalised: wild type 0, dead -1); higher = more abundant; growth selection in yeast, the domain comes from the species named
Conditions: Homo sapiens

Variant	abundance fitness
L34S	-0.617 ± 0.094
L34T	-0.696 ± 0.1
L34V	-0.615 ± 0.09
L34W	-0.029 ± 0.096
L34Y	0.544 ± 0.11
V35A	-0.04 ± 0.088
V35E	0.529 ± 0.091
V35F	0.054 ± 0.11
V35G	0.118 ± 0.083
V35I	0.03 ± 0.099
V35K	0.446 ± 0.097
V35M	0.245 ± 0.097
V35N	0.761 ± 0.1
V35P	-0.848 ± 0.11
V35Q	0.543 ± 0.099
V35R	0.193 ± 0.084
V35S	0.5 ± 0.086
V35T	0.302 ± 0.095
V35W	0.2 ± 0.089
V35Y	0.296 ± 0.1
T36A	-0.178 ± 0.091
T36C	-0.236 ± 0.099
T36D	-0.068 ± 0.1
T36E	-0.025 ± 0.097

Variant	abundance fitness
T36F	-0.483 ± 0.11
T36G	-0.032 ± 0.086
T36H	-0.283 ± 0.12
T36K	0.141 ± 0.095
T36L	-0.453 ± 0.089
T36M	-0.341 ± 0.1
T36N	-0.232 ± 0.12
T36Q	0.055 ± 0.1
T36S	0.018 ± 0.086
T36V	-0.38 ± 0.088
T36W	-0.081 ± 0.097
T36Y	-0.25 ± 0.11
H37A	-0.683 ± 0.12
H37C	-1.5 ± 0.23
H37D	-0.457 ± 0.13
H37E	-0.611 ± 0.15
H37F	-1.1 ± 0.22
H37G	-0.565 ± 0.11
H37I	-1 ± 0.26
H37K	-0.806 ± 0.15
H37L	-0.741 ± 0.11
H37M	-0.728 ± 0.13
H37N	-0.747 ± 0.19
H37P	-0.787 ± 0.14

Variant	abundance fitness
H37Q	-0.93 ± 0.15
H37R	-0.789 ± 0.11
H37S	-0.856 ± 0.15
H37T	-0.903 ± 0.14
H37V	-0.904 ± 0.11
H37W	-0.953 ± 0.15
H37Y	-0.951 ± 0.14
V38A	-0.161 ± 0.093
V38C	-0.066 ± 0.1
V38D	-0.159 ± 0.1
V38E	0.518 ± 0.095
V38F	0.08 ± 0.13
V38G	-0.095 ± 0.084
V38H	-0.121 ± 0.11
V38I	-0.021 ± 0.1
V38K	0.623 ± 0.097
V38L	-0.165 ± 0.091
V38M	0.278 ± 0.1
V38N	0.035 ± 0.13
V38P	-0.417 ± 0.12
V38Q	0.43 ± 0.11
V38R	0.607 ± 0.083
V38S	0.202 ± 0.088
V38T	0.052 ± 0.1

Variant	abundance fitness
V38W	0.82 ± 0.09
V38Y	0.066 ± 0.12
S39A	0.129 ± 0.088
S39C	-0.016 ± 0.11
S39D	0.414 ± 0.1
S39E	0.334 ± 0.092
S39F	-0.663 ± 0.11
S39G	-0.019 ± 0.086
S39H	-0.241 ± 0.13
S39I	-0.681 ± 0.14
S39L	-0.356 ± 0.091
S39M	-0.274 ± 0.11
S39N	-0.007 ± 0.11
S39P	-0.666 ± 0.12
S39Q	0.296 ± 0.1
S39R	0.056 ± 0.087
S39T	-0.065 ± 0.093
S39V	-0.357 ± 0.091
S39W	-0.292 ± 0.097
S39Y	-0.873 ± 0.14
V40A	-0.03 ± 0.089
V40C	-0.457 ± 0.11
V40E	0.062 ± 0.092
V40F	-0.549 ± 0.11

Variant	abundance fitness
V40G	0.05 ± 0.084
V40H	-0.136 ± 0.13
V40I	-0.01 ± 0.11
V40K	-0.122 ± 0.1
V40L	-0.363 ± 0.096
V40M	0.082 ± 0.099
V40N	0.075 ± 0.11
V40R	-0.134 ± 0.086
V40S	0.001 ± 0.088
V40T	-0.073 ± 0.1
V40W	-0.581 ± 0.1
V40Y	-0.275 ± 0.12
E41A	-0.07 ± 0.089
E41C	0.03 ± 0.1
E41D	-0.093 ± 0.11
E41F	-0.405 ± 0.13
E41G	-0.279 ± 0.087
E41I	-0.216 ± 0.12
E41K	-0.269 ± 0.11
E41L	-0.487 ± 0.089
E41M	-0.338 ± 0.1
E41N	-0.044 ± 0.11
E41P	-1.04 ± 0.12
E41Q	0.084 ± 0.098

Variant	abundance fitness
E41R	-0.377 ± 0.088
E41S	0.032 ± 0.087
E41T	0.032 ± 0.094
E41V	-0.125 ± 0.086
E41W	-0.387 ± 0.1
E41Y	-0.226 ± 0.12
H42A	-0.689 ± 0.096
H42C	-1.16 ± 0.14
H42D	-1.01 ± 0.12
H42E	-1.07 ± 0.13
H42F	-1.04 ± 0.13
H42G	-0.661 ± 0.091
H42I	-0.862 ± 0.12
H42L	-0.975 ± 0.098
H42M	-0.642 ± 0.12
H42N	-1.25 ± 0.16
H42P	-1.13 ± 0.14
H42Q	-0.909 ± 0.13
H42S	-0.854 ± 0.095
H42T	-0.89 ± 0.11
H42W	-0.707 ± 0.12
H42Y	-0.971 ± 0.12
V43A	0.052 ± 0.086
V43E	0.587 ± 0.088

Variant	abundance fitness
V43F	0.063 ± 0.11
V43G	0.247 ± 0.084
V43H	0.012 ± 0.11
V43K	0.088 ± 0.11
V43L	-0.299 ± 0.09
V43M	-0.126 ± 0.1
V43P	0.129 ± 0.095
V43Q	0.116 ± 0.095
V43R	0.226 ± 0.085
V43S	0.313 ± 0.088
V43T	0.108 ± 0.096
V43W	-0.332 ± 0.1
V43Y	0.485 ± 0.1
G44A	-0.006 ± 0.087
G44C	-0.062 ± 0.096
G44E	-0.2 ± 0.099
G44F	-0.384 ± 0.1
G44H	-0.292 ± 0.11
G44I	-0.363 ± 0.11
G44K	-0.142 ± 0.12
G44L	-0.641 ± 0.097
G44M	-0.372 ± 0.1
G44N	-0.019 ± 0.11
